# Results taken from the supplement of paper PMC10126150.
# ± gives the standard deviation of the averaged measurements.
# System: ATP
# Assay: switch fluorescence ratio, 500 uM ATP over buffer (Cy3 cluster intensity, sum of 5 cycles each) (fold (ratio)); higher = stronger signal-on switching upon ATP binding; sequences stand for … in TCGTCGGCAGCGTCAGATGTGTATAAGAGACAGTTTTTTTTTTTTTTTTTTTTTTTTT…TC
# Conditions: aptamer strand: ATP DNA aptamer (quencher-CACCTGGGGGAGTATTGCGGAGGAAGG + anchor), 100 nM annealed; ATP concentration: 500 uM
# Method in brief: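 Exposure to 500 uM ATP lasted 15 min at 22 °C before imaging, and a selection-buffer image was taken beforehand, for Cy3-labelled switching-strand clusters on a modified Illumina MiSeq flow-cell annealed to 100 nM quencher-labelled ATP aptamer. Five buffer/ATP cycles were run with NaOH stripping and re-annealing between them. The fluorescence ratio per cluster is summed target-cycle over summed buffer-cycle Cy3 intensity, averaged per switch-domain sequence. Clusters outside 100-1000 RFU were excluded.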
sequence,measurement,value
TTTACAAGTA,switch fluorescence ratio,1.031 ± 0.0049
TCGCTTTGCT,switch fluorescence ratio,1.31 ± 0.42
AATTGGAGTG,switch fluorescence ratio,0.998 ± 0.041
TATTACGAAA,switch fluorescence ratio,1.1 ± 0.032
AATTGGGTTA,switch fluorescence ratio,0.976 ± 0.023
ATTCCGGGGA,switch fluorescence ratio,1.23 ± 0.29
CTATGTTGTT,switch fluorescence ratio,1 ± 0.018
CGAGCGTAGG,switch fluorescence ratio,1.01 ± 0.043
GGAGGTTGTG,switch fluorescence ratio,0.987 ± 0.017
TTGATTGATA,switch fluorescence ratio,1 ± 0.028
TTAAGTGGGT,switch fluorescence ratio,0.979 ± 0.061
ATACAGGGCT,switch fluorescence ratio,1.01 ± 0.029
TAAATAGCTT,switch fluorescence ratio,1.08 ± 0.17
TGGTGTATAG,switch fluorescence ratio,1 ± 0.036
GATTAATGTT,switch fluorescence ratio,1 ± 0.022
TGTTTAAATT,switch fluorescence ratio,0.983 ± 0.013
GGATTGTGTT,switch fluorescence ratio,0.985 ± 0.0018
CCGATGGGCC,switch fluorescence ratio,1.22 ± 0.028
TGTGGTTTTA,switch fluorescence ratio,1 ± 0.033
CATATTTGCC,switch fluorescence ratio,1.03 ± 0.059
GGAAAAGTTG,switch fluorescence ratio,0.9848 ± 0.0083
GGAGGAGGCA,switch fluorescence ratio,0.997 ± 0.033
TATATCTTTT,switch fluorescence ratio,1.04 ± 0.026
ATATATCTAG,switch fluorescence ratio,0.998 ± 0.029
ACGGTCGTTA,switch fluorescence ratio,0.975 ± 0.027
GGTTTCTTCG,switch fluorescence ratio,1.09 ± 0.1
AGGTCACAG,switch fluorescence ratio,1 ± 0.03
CATTTTTGAA,switch fluorescence ratio,1.006 ± 0.0066
AGGGTTTTAT,switch fluorescence ratio,1.003 ± 0.0048
TATTATCGTA,switch fluorescence ratio,0.9927 ± 0.0081
GAGATTGTGT,switch fluorescence ratio,0.9936 ± 0.0048
CGGGACATGA,switch fluorescence ratio,1.01 ± 0.012
GGGGATATGA,switch fluorescence ratio,0.995 ± 0.049
CCTAACAGGA,switch fluorescence ratio,1.01 ± 0.04
TGAAGCTTGG,switch fluorescence ratio,1.026 ± 0.0073
ACCGTGTCGT,switch fluorescence ratio,0.989 ± 0.095
ATATTTGTTT,switch fluorescence ratio,0.993 ± 0.022
CGGTTTAGGA,switch fluorescence ratio,0.988 ± 0.028
GTGGTGGAAA,switch fluorescence ratio,1 ± 0.0029
CATTCTACGT,switch fluorescence ratio,1.04 ± 0.018
GGATTGATGT,switch fluorescence ratio,0.972 ± 0.011
AAGTTTTGTA,switch fluorescence ratio,0.985 ± 0.05
TTACGTTTTG,switch fluorescence ratio,1.13 ± 0.29
GGGTCAGTCC,switch fluorescence ratio,0.978 ± 0.019
TTTTGAAGGA,switch fluorescence ratio,1.01 ± 0.027
TTTTACAGCC,switch fluorescence ratio,1.052 ± 0.0051
AAGGGGCTCT,switch fluorescence ratio,0.993 ± 0.033
CAGGGGTATT,switch fluorescence ratio,1.32 ± 0.42
CAAGGGGGCG,switch fluorescence ratio,0.994 ± 0.048
CAACGGGCCA,switch fluorescence ratio,1.01 ± 0.029
TTTTTTAACG,switch fluorescence ratio,0.9973 ± 0.0053
TGTGAGGGGA,switch fluorescence ratio,1.01 ± 0.035
GCACATTATG,switch fluorescence ratio,0.985 ± 0.011
GAGTAAATTG,switch fluorescence ratio,0.987 ± 0.019
AATCGGTCGT,switch fluorescence ratio,0.994 ± 0.031
TGCGGGAGTG,switch fluorescence ratio,0.965 ± 0.023
GCGTGTTTTT,switch fluorescence ratio,1.04 ± 0.013
GCGGCTGCTG,switch fluorescence ratio,1.04 ± 0.062
TTTTTCAATT,switch fluorescence ratio,0.982 ± 0.017
AGCAAAAAGG,switch fluorescence ratio,0.997 ± 0.054
CGAAATGGGT,switch fluorescence ratio,1.03 ± 0.025
GGGAAAACCA,switch fluorescence ratio,1.01 ± 0.0098
TAGGGGTA,switch fluorescence ratio,1.01 ± 0.021
AGGTAGTGGG,switch fluorescence ratio,0.974 ± 0.029
TCCATTAAAA,switch fluorescence ratio,0.976 ± 0.036
ACAACTCAGG,switch fluorescence ratio,1.22 ± 0.022
TTGGCGGGGT,switch fluorescence ratio,1.04 ± 0.081
GGGGGAACGG,switch fluorescence ratio,1.08 ± 0.1
ACTAAGGATT,switch fluorescence ratio,1.02 ± 0.018
GTTGAGGGTA,switch fluorescence ratio,1 ± 0.034
AGGGGGTTTT,switch fluorescence ratio,1 ± 0.036
GACGGTAGGG,switch fluorescence ratio,0.969 ± 0.051
GCATGGGGTG,switch fluorescence ratio,1.069 ± 0.0081
TTGTTTTAAT,switch fluorescence ratio,0.999 ± 0.02
TCATGTAAGA,switch fluorescence ratio,0.998 ± 0.024
GGGGGAAGTT,switch fluorescence ratio,0.986 ± 0.042
TTTCTCGG,switch fluorescence ratio,1.07 ± 0.093
TTGTACTTAC,switch fluorescence ratio,1.24 ± 0.048
GGATTATTGG,switch fluorescence ratio,1.002 ± 0.0083
CAGTGCGTGT,switch fluorescence ratio,1 ± 0.03
GACAGGGTTA,switch fluorescence ratio,1.001 ± 0.0086
ATGTTTGAGT,switch fluorescence ratio,1.01 ± 0.026
AGTTAGATCT,switch fluorescence ratio,1.005 ± 0.009
ATTTGTGTTT,switch fluorescence ratio,0.9931 ± 0.0027
CTATGGGGGA,switch fluorescence ratio,1.04 ± 0.02
TCGATGGCAT,switch fluorescence ratio,1.31 ± 0.065
ATGCATTTTA,switch fluorescence ratio,0.999 ± 0.045
TTGGGGGACT,switch fluorescence ratio,1.01 ± 0.042
TTGCACGTAT,switch fluorescence ratio,1.08 ± 0.056
TTTAGTAGTT,switch fluorescence ratio,1.01 ± 0.017
TGGATGGGGG,switch fluorescence ratio,0.992 ± 0.022
TGGGCAATTT,switch fluorescence ratio,1.09 ± 0.036
CGTGTGGTCG,switch fluorescence ratio,0.9325 ± 0.0038
ATGAGAAGTT,switch fluorescence ratio,1.01 ± 0.007
TAAAAGGTTG,switch fluorescence ratio,0.989 ± 0.033
CCGGGGAAGG,switch fluorescence ratio,1.04 ± 0.0092
GTTATTATGG,switch fluorescence ratio,1.013 ± 0.0084
TGCTGGATGA,switch fluorescence ratio,1 ± 0.047
GTTGTTAACT,switch fluorescence ratio,0.999 ± 0.048
GGGAGGACTT,switch fluorescence ratio,0.977 ± 0.029
AATTATGGGC,switch fluorescence ratio,1.023 ± 0.0064
CCTAGGGTCA,switch fluorescence ratio,1.01 ± 0.018
AGTTGAGCAA,switch fluorescence ratio,1.29 ± 0.048
TTTTTTTAAG,switch fluorescence ratio,1 ± 0.018
TAAGTTGGGT,switch fluorescence ratio,0.994 ± 0.042
ATTTTTTGGG,switch fluorescence ratio,0.9597 ± 0.0069
AGCACGAAGG,switch fluorescence ratio,0.992 ± 0.04
TCATACGGGG,switch fluorescence ratio,1.01 ± 0.023
CGTGTGGTAT,switch fluorescence ratio,1.01 ± 0.042
GGTTCTTATA,switch fluorescence ratio,1.046 ± 0.008
GGGGTAAAGC,switch fluorescence ratio,1 ± 0.018
TGGTCTTCTC,switch fluorescence ratio,1.16 ± 0.26
AGCTGGGTTT,switch fluorescence ratio,1 ± 0.021
GGGTAATTAT,switch fluorescence ratio,1.01 ± 0.036
GAGGGCATTT,switch fluorescence ratio,0.985 ± 0.02
TCGATTTGAT,switch fluorescence ratio,0.98541 ± 0.00062
TTAGAGAGGT,switch fluorescence ratio,0.988 ± 0.03
TTTCGGCGGG,switch fluorescence ratio,1 ± 0.013
TTGTAACGGA,switch fluorescence ratio,1.01 ± 0.039
TGTCCACTAC,switch fluorescence ratio,2.78 ± 2.3
ATATTAGGCA,switch fluorescence ratio,1.01 ± 0.037
TCGTAGGCCT,switch fluorescence ratio,0.981 ± 0.061
TATTTCGAAT,switch fluorescence ratio,1.11 ± 0.18
TTGGCTATTT,switch fluorescence ratio,0.9981 ± 0.0075
GGAATGGGCG,switch fluorescence ratio,1.02 ± 0.042
AACAATGCTA,switch fluorescence ratio,1.05 ± 0.026
TTTTTTCCTT,switch fluorescence ratio,1.01 ± 0.034
GCTTACGGTG,switch fluorescence ratio,1.01 ± 0.02
TTGGGTCCTT,switch fluorescence ratio,0.993 ± 0.026
TTTAAATGCG,switch fluorescence ratio,0.985 ± 0.041
GATCGGGGTA,switch fluorescence ratio,1.014 ± 0.0071
AATTGGTCCT,switch fluorescence ratio,0.986 ± 0.041
TTGTTTGGTG,switch fluorescence ratio,0.932 ± 0.014
GACCTTAATG,switch fluorescence ratio,1.05 ± 0.013
TGTGAGTTGG,switch fluorescence ratio,1 ± 0.029
GCGGATGCGT,switch fluorescence ratio,1.03 ± 0.048
AAAGTGGTTC,switch fluorescence ratio,1.04 ± 0.053
TGGCGAAGGT,switch fluorescence ratio,0.9747 ± 0.0085
GATGTAGGTG,switch fluorescence ratio,1.007 ± 0.0071
GGCCCAGAAA,switch fluorescence ratio,1.003 ± 0.0097
ACTTTTCGGC,switch fluorescence ratio,0.9915 ± 0.0073
GCGATTTTTG,switch fluorescence ratio,0.986 ± 0.041
AAGGCGTAC,switch fluorescence ratio,1.24 ± 0.17
GCGCATAAGG,switch fluorescence ratio,1.039 ± 0.0057
CTTTGGGGCT,switch fluorescence ratio,0.999 ± 0.038
CATGTAGGTG,switch fluorescence ratio,1.06 ± 0.048
ATACCTGGTC,switch fluorescence ratio,1.053 ± 0.0017
AGAGGGTTGT,switch fluorescence ratio,0.992 ± 0.031
TGCGACGATG,switch fluorescence ratio,1.03 ± 0.027
GAGGCAGACT,switch fluorescence ratio,1.23 ± 0.019
ATAGTGATGT,switch fluorescence ratio,0.995 ± 0.04
ATTTTAGTTA,switch fluorescence ratio,1 ± 0.038
CAAGCTATCA,switch fluorescence ratio,1.026 ± 0.002
GGGACTGGGG,switch fluorescence ratio,1.02 ± 0.061
TGTATGGTAG,switch fluorescence ratio,0.975 ± 0.025
AAGAAAGACT,switch fluorescence ratio,1.02 ± 0.013
TTCGACTTCG,switch fluorescence ratio,0.9903 ± 0.0063
